The test has as its target PRX302 (modified proaerolysin in which the furin site is replaced with a PSA-specific cleavage site) (Aeromonas hydrophilia (engineered variant)) (UniProt P09167). As to the kind of experiment: cell-based or functional assay.

Substance “Prostate Specific Antigen (PSA), enzymatically active (from UniProt P07288 25-261) (enzyme)” showed a hemolysis (red blood cells) after pre-incubation of PRX302 with enzymatically active PSA in aqueous buffer of 45 % hemolysis.

Values taken from patent US20210205408A1.
